# From patent US20060229438A1, “Monoclonal antibody derived peptide inhibitors for mycobacterial dna gyrase” (priority 2002, published 2006)
# B1: scFv:GyrA, engineered single chain antibody of MsGyrA:C3 (scFv)
# scFv: AQVKLQQSGAELVRPGASVKLSCKASGYSFTVYYIYWVKQRPGQALEWIGEINPSNGGTNFNEKFKTKATLTVDKSTSTVYMQLSSLTSEDSAVYYCTRWGLRRGFAYWGQGTTVTVSSSGGGSGGGGSGGGGSDIELTQSPKSMSMSVGERVTLSCKASENVGTHVSWYQQRPEESPKLLIYGASNRYTGVPDRFTGSGSATDFTLTISNVQAEDLADYHCGQTYSYPFTFGLGTKLEIKRAAAGAPVPYPDPLEPRAA
# notes: also called ScFV:GyraA; soluble scFv
# B2: scFv:GyrA: engineered single chain antibody fragment of MsGyrA:C3, monovalent 30 kDa polypeptide, Seq. ID #2, encoded by pVNUHMscFv (protein)
# scFv: B1 scFv
# Assays:
# [1] = system: ciprofloxacin resistant M. smegmatis mc^2155 strain; assay: Ciprofloxacin susceptibility (MIC50) of resistant strain; assay type: cell-based; details: Mycolicibacterium smegmatis
# M. smegmatis DNA gyrase = molecular target: T1, M. smegmatis DNA gyrase (Mycolicibacterium smegmatis, UniProt Q59556); assay: DNA supercoiling assay, M. smegmatis DNA gyrase; assay type: biochemical
# T1 construct: made in house
# [2] = system: DNA gyrase from ciprofloxacin resistant M. smegmatis mc^2155 strain; assay type: biochemical
# [3] = molecular target: T2, M. smegmatis DNA gyrase A subunit (GyrA) (Mycobacterium smegmatis, UniProt P48354 1-842); assay: SPR (BIAcore 2000), M. smegmatis GyrA immobilized on CM5 chip
# T2 construct: also called M. smegmatis GyrA
# T2 sequence (P48354 whole entry): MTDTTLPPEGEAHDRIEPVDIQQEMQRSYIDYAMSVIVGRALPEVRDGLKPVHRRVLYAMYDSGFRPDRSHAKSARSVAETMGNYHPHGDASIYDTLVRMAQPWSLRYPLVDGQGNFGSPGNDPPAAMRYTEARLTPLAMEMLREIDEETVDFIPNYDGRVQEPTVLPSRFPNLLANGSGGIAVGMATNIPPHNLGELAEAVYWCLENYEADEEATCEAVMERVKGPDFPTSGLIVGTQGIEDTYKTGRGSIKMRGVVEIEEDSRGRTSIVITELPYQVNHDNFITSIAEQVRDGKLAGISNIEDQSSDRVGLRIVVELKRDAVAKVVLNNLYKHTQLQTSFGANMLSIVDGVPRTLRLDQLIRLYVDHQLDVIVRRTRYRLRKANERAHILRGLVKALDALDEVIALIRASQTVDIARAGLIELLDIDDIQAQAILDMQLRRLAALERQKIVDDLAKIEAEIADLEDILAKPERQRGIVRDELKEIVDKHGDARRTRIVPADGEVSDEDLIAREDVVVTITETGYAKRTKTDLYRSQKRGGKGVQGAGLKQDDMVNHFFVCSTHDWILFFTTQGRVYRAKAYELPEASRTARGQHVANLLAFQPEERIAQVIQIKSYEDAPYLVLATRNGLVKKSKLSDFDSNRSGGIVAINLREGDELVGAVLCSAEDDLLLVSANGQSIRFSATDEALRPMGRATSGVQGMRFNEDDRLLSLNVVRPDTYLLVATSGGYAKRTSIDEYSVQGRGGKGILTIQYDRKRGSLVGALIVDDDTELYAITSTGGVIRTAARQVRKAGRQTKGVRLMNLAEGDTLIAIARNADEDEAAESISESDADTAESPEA
# Procedure: Binding parameters were determined by Surface Plasmon Resonance (SPR) spectroscopy using a BIAcore 2000 system, Uppsala, Sweden. The over-expressed and purified M. smegmatis GyrA was immobilized on the CM5 sensor chip at a concentration of 400 resonance units (RU) as per manufacturer's instructions. All measurements were carried out in a continuous flow of HBS buffer (10 mM HEPES, 150 mM NaCl, 5 mM EDTA and 0.05 % Surfactant P-20, pH 7.4) at 10 μl/min. […] The kinetic data were analyzed using the BIA evaluation software (Version 3.0). The surface was regenerated by a pulse of 5 μL of 100 mM NaOH for further experimentation as required.
# T1 sequence (Q59556 whole entry): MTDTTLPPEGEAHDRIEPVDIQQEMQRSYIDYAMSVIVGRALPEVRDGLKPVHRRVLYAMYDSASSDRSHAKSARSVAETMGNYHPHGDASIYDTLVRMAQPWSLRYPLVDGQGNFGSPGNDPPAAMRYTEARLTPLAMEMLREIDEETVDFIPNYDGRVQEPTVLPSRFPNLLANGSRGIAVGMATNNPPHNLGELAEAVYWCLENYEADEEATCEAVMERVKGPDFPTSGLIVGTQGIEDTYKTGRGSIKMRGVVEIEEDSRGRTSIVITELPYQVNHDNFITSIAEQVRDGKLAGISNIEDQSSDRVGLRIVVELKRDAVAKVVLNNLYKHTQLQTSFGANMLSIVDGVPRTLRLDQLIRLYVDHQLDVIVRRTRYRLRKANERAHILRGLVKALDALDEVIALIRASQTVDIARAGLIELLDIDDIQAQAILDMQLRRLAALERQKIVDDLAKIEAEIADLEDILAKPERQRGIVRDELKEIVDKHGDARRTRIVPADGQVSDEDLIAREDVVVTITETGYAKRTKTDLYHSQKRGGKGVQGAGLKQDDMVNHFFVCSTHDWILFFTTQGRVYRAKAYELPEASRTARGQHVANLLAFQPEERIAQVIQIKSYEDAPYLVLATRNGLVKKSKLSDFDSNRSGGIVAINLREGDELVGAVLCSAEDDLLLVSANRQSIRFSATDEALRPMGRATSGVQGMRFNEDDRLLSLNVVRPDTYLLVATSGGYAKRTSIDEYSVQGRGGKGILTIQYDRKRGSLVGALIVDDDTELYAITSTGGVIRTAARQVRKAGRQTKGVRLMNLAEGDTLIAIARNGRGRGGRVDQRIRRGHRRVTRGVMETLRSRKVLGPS
# T1 sequence (P0C559 2-675, further chain): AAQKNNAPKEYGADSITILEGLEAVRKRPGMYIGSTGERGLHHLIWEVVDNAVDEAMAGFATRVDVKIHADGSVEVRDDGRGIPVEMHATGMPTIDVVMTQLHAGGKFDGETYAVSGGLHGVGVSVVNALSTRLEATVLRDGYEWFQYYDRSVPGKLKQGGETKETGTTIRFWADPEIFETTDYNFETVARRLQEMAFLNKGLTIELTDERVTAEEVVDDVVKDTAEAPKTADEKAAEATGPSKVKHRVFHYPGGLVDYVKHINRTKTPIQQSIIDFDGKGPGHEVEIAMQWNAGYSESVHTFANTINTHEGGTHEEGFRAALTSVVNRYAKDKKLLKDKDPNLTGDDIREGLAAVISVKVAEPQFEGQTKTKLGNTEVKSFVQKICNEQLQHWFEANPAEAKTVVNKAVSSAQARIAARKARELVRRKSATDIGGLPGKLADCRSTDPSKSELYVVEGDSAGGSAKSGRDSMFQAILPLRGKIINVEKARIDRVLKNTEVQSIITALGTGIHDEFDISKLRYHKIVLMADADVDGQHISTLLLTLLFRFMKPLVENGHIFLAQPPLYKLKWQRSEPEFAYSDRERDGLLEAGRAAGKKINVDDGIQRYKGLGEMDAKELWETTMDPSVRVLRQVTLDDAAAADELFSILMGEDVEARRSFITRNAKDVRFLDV
molecule,measurement,setting,value
"O=C(O)c1cn(C2CC2)c2cc(N3CCNCC3)c(F)cc2c1=O [ciprofloxacin, reference compound]",MIC50,[1],64 µg/mL
same,IC50,M. smegmatis DNA gyrase,~15.1 µM
KASGYSFTVYYIYWVK [CDR:H1],concentration at which DNA supercoiling activity was inhibited,[2],10 µM
same,peptide concentration for complete inhibition of enzyme activity,M. smegmatis DNA gyrase; supercoiling activity,5 to 10 µM
B1,Kd,[3],0.000217 µM
B2,concentration at which DNA supercoiling activity was inhibited,[2],0.05 µM
same,concentration at which the supercoiling reaction was inhibited,M. smegmatis DNA gyrase,10 to 20 nM
same,inhibition of DNA gyrase supercoiling activity,"M. smegmatis DNA gyrase; enzyme preincubated with antibody, relaxed pUC18 DNA",inhibited
